One data set deals with Taq DNA polymerase (Thermus aquaticus, UniProt P19821 1-832). The experiment in a line: qPCR of aptamer bound to immobilized protein; 50 nM aptamer; 0.5 ug Taq/well; 0.1% methylcellulose, BSA or Tween 20 block; PBS + 0.1% Tween 20 (PBST); 1 h at 21 C (44/70-Taq) or 37 C (NC aptamer-nucleocapsid); wells blocked with 0.1% BSA, Tween 20 or methylcellulose; PBST washes. The following applies: protein: commercial. A general note: In qPCR the cycle at which signal appears reflects the starting amount.

Data set [1] concerns the target SARS-CoV-2 nucleocapsid protein (SARS-CoV-2, UniProt P0DTC9 1-419). Kind of data set: aptamer-immuno-PCR (mAb sandwich, qPCR); PBS + 0.1% Tween 20 (PBST); 1 h at 21 C ([…]) or 37 C ([…]. To be noted: protein: commercial; chain copies: 2.

B1: 44/70 aptamer (ssDNA)
DNA: CCTTGAACCTGTGCCATTTGCTAATTGAGACTATTATGGGCTTTTTAGTCGAACAGTAGGAAGATGGAGG
B1: the binding result with Taq DNA polymerase was “binds”.

B2: NC aptamer (ssDNA)
DNA: GCAATGGTACGGTACTTCCGGATGCGGAAACTGGCTAATTGGTGAGGCTGGGGCGGTCGTGCAGCAAAAGTGCACGCTACTTTGCTAA
Consider B2, for which the binding result in data set [1] is on record as “binds”.

For the origin of these results see publication PMC10779054.
